Our source for the Kd, T1/2 and Percent Blocking of Ang-2FD Binding to Tie-2 values is patent publication US20130129722A1.

Residue numbers refer to the chain shown, from its start.

The labels stand for the following.
B1: H1H743N (antibody, V domains shown)
VH: EVQLLESGGGLVQPGGSLRLSCAASGFTFRKYAMSWVRQAPGKGLEWVSVISVSGGNTYYADSVKGRFTISRDNSKNTLYLQLNSLRAEDTAVYYCAKDLTDIVLMVYVDYWGQGTLVTVSS
VL: DIQMTQSPSSVSASVGDRVTITCRASQDIDRWLAWYQQKPGKAPKLLIYAASSLQSGVPSRFSGSGSGTDFTLTISTLQPEDFATYYCQQANSLPFTFGGGTKVEIK
B2: H1H732N (antibody, V domains shown)
VH: EVQLVESGGGLVRPGGSLRLSCAASGFTFTNAWMSWVRQAPGKGLEWIGQIKSKTDGGTIDYAAPVKGRFTVSRDDSENTLFLQMNSLKTEDTAVYYCAGNWNYVDFDYWGQGTLVTVSS
VL: DIQMTQSPSSLSASVGDRVTITCRASQDIRNDLGWYQQKPGKAPKRLIYAASSLQGGVPSRFSGSGSGTEFTLTISSLQPEDFATYYCLQHNSYPFTFGPGTKVDIK
B3: H1H728N (antibody, V domains shown)
VH: EVQLVESGGDLVQPGGSLRLSCTASGFTFSKYWMTWVRQAPGRGLEWVANIKEDGNEKYFLDSVKGRFTISRDNAKDLLFLQMNSLRGEDTAVYYCVRDRGIEVAGPFDYWGQGTLVTVSS
VL: DIQMTQSPSTLSASVGDRVTVTCRASQTIINWLAWYQQKPGKAPKLLISKASSLESGVPSRFSGSGSGTEFTLTISSLQPDDFATYYCQQYNRYWTFGQGTMVEIK
B4: H1H730N (antibody, V domains shown)
VH: EVQLVESGGGLVQPGGSLRLSCAASGFAFRSYWMTWVRQAPGKGLEWVANIQQDGNDKYYVDSVKGRFTISRDNAKNSLYLQMNSLRAEDTAVYYCARDTGIAEAGPFDYWGQGTLVTVSS
VL: B3 VL with T20S, V21I, N31S, K45R, S49Y, S76N, M102K
B5: H1H742N (antibody, V domains shown)
VH: DVQLLESGGDLVQPGGSLRLSCEASGFTFRNYVMIWVRQAPGKGLEWVSGISNSGGTTHYTDSVKGRFTISRDNSKNTLYLQINSLRAEDTAVYYCAKGYLDTSLIEGNWFDPWGQGTLVTVSS
VL: NIVMTQSPLSLPVTPGEPASISCRSSQSLLHSNGFNYLNWFLQKPGQSPQLLIYLGSNRASGVPDKFSGSGSGTDFTLNINRVEAEDVGIYFCMQTLQTPLTFGGGTKVEIK
B6: H1H750N (antibody, V domains shown)
VH: QVKLVESGGGVVQPGRSLRVSCAASGFTFSSYGMHWVRQAPGKGLEWLAIIWYDGDNKYYSDSVKGRFTISRDNSKNTLYLQMNSLRAEDTAEYYCVRDASIASRFLDYWGQGTLVTVSS
VL: DIQMTQSPSSLSASIGDRVTITCRATQDINNYLAWFQQKPGKAPKSLIYATSNLQSGVPSKFSGSGSGTDYTLTISSLQPEDFSTYYCQQYHSYPLTFGGGTKVEIK
B7: H2M743N (antibody, V domains shown)
VH: B1 VH
VL: B1 VL
B8: H1M724N (antibody, V domains shown)
VH: QVQLVESGGGVVQPGRSLRLSCAASGFTLSNYGMHWVRQAPGKGLEWVAVIWHDGSNTYYADSVKGRFTISRDNSKNTLYLQMNSLRAEDTAVYYCTREGLDFWSGYYPNWFDPWGQGTLVTVSS
VL: B2 VL with D28G, S53N, T85A, S93I, F96L, P100G, D105E
B9: H1M732N (antibody, V domains shown)
VH: B2 VH
VL: B2 VL
B10: H1M728N (antibody, V domains shown)
VH: B3 VH
VL: B3 VL
B11: H2M730N (antibody, V domains shown)
VH: B4 VH
VL: B3 VL with T20S, V21I, N31S, K45R, S49Y, S76N, M102K
B12: H2M742N (antibody, V domains shown)
VH: B5 VH
VL: B5 VL
B13: H2M750N (antibody, V domains shown)
VH: B6 VH
VL: B6 VL

For orientation: Kd means the free concentration of one partner at which half of the binding sites on the other are occupied at equilibrium, for simple one-to-one binding.

The target of one experiment is Dimeric Human Ang-2FD conjugated to human IgG1 (human). Nature of the experiment: SPR, human IgG1 antibody captured.
Chain of Dimeric Human Ang-2FD conjugated to human IgG1 (human) (chain, as listed by the source limits assumed): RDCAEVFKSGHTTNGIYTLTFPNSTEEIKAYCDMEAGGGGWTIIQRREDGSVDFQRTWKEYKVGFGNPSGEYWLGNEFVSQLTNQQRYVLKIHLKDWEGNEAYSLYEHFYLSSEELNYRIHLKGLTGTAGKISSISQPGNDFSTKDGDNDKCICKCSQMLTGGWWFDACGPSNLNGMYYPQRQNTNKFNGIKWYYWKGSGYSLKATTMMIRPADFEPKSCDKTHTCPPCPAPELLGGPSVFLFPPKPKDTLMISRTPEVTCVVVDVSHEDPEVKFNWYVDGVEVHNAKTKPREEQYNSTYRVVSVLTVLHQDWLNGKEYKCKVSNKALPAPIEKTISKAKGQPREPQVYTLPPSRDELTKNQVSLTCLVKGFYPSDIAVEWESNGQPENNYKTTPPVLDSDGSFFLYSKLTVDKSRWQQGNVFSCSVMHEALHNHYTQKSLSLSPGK
In turn, B1 had a Kd of 0.0882 nM and a T1/2 of 254 min.
Take B2: the dissociation constant Kd came to 0.386 nM and the T1/2 came out at 57 min.
In turn, B3 yielded a Kd of 0.162 nM and a T1/2 of 81 min.
In the same order, the values of B4 are 0.234 nM and 62 min.
In the same order, the values of B5 are 0.186 nM and 65 min.
The molecule B6 had a Kd of 0.164 nM and a T1/2 of 127 min.

The target of another experiment is Dimeric Monkey Ang-2FD conjugated to human IgG1 (monkey (Macca fascicularis)). Nature of the experiment: SPR, human IgG1 antibody captured. (Surface plasmon resonance follows binding to a sensor surface in real time, without labels.)
Chain of Dimeric Monkey Ang-2FD conjugated to human IgG1 (monkey (Macca fascicularis)) (chain, as listed by the source limits assumed): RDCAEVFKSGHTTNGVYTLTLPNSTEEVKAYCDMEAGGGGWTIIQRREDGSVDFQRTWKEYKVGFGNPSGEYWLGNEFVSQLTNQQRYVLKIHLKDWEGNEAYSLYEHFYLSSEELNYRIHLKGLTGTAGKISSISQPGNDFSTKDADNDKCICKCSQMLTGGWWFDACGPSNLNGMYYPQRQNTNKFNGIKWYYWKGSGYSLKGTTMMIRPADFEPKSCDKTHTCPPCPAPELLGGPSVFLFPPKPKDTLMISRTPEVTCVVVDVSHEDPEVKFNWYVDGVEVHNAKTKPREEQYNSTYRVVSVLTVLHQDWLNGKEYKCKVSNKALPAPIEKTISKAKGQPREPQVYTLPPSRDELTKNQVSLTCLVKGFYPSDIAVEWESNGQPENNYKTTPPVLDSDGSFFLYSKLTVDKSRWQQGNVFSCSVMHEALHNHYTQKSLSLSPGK
For B1, the dissociation constant (Kd) amounted to 0.0965 nM and the T1/2 was found to be 780 min.
The molecule B2 showed a dissociation constant Kd of 0.439 nM and a T1/2 of 118 min.
For the molecule B3, the Kd is 2 nM and the T1/2 amounted to 77 min.
For the molecule B4, the Kd stood at 3.4 nM and the T1/2 is 87 min.
B5: the Kd is 0.683 nM and the T1/2 came to 93 min.
Take B6: the dissociation constant (Kd) worked out at 0.199 nM and the T1/2 stood at 244 min.

In another experiment the target is Dimeric Mouse Ang-2FD conjugated to human IgG1 (mouse (Mus musculus)). Nature of the experiment: SPR, human IgG1 antibody captured.
Chain of Dimeric Mouse Ang-2FD conjugated to human IgG1 (mouse (Mus musculus)) (chain, as listed by the source limits assumed): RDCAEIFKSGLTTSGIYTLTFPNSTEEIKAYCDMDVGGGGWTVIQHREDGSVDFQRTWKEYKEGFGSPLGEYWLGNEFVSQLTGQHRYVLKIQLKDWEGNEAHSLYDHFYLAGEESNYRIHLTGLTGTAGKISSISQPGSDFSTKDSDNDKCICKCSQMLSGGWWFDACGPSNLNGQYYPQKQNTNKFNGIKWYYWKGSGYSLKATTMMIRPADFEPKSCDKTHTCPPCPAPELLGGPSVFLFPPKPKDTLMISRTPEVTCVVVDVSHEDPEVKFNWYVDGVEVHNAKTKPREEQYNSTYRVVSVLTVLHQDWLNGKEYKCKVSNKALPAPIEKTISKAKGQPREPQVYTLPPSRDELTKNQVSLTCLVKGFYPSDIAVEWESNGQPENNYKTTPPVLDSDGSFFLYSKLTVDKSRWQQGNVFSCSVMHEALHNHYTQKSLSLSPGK
On to B1, for which the Kd was determined as 0.124 nM and the T1/2 turned out to be 233 min.
B2 came in with a Kd of 0.529 nM and a T1/2 of 51 min.
In the same order, the values of B3 are 5.76 nM and 20 min.
B4: the Kd was 0.0971 nM and the T1/2 worked out at 90 min.
B5 returned a Kd of 0.276 nM and a T1/2 of 58 min.
Molecule B6 showed a Kd of 0.218 nM and a T1/2 of 121 min.

For the next experiment, the target named is Dimeric Human Ang-2FD conjugated to human IgG1 (human). Nature of the experiment: SPR, antibody captured, room temperature.
On to B7, for which the Kd worked out at 0.154 nM and the T1/2 was 167 min.
Consider B8, for which the Kd turned out to be 0.179 nM and the T1/2 stood at 42.7 min.
With B9, the Kd is 0.484 nM and the T1/2 was 35.5 min.
In the same order, the values of B10 are 0.137 nM and 58.4 min.
In the same order, the values of B11 are 0.21 nM and 47 min.
In the same order, the values of B12 are 0.295 nM and 38 min.
B13: the dissociation constant (Kd) is 0.362 nM and the T1/2 is 32.2 min.

The target in another experiment is Dimeric Monkey Ang-2FD conjugated to human IgG1 (monkey (Macca fascicularis)). Briefly: SPR, antibody captured, room temperature.
On to B7, for which the Kd was found to be 0.234 nM and the T1/2 was determined as 169 min.
For the molecule B8, the Kd was determined as 0.73 nM and the T1/2 turned out to be 25.7 min.
As for B9, the Kd worked out at 7.33 nM and the T1/2 turned out to be 24.1 min.
In the same order, the values of B10 are 1.58 nM and 69.5 min.
In the same order, the values of B11 are 0.842 nM and 36.6 min.
The molecule B12 came in with an equilibrium dissociation constant (Kd) of 6.17 nM and a T1/2 of 28.5 min.
B13: the Kd is 1.47 nM and the T1/2 turned out to be 23 min.

The target in a further experiment is Dimeric Mouse Ang-2FD conjugated to human IgG1 (mouse (Mus musculus)). Nature of the experiment: SPR, antibody captured, room temperature.
In the case of B7, the Kd worked out at 0.882 nM and the T1/2 was 195 min.
For B8, the equilibrium dissociation constant (Kd) is 0.694 nM and the T1/2 came to 16 min.
In the same order, the values of B9 are 1.7 nM and 21.4 min.
In the same order, the values of B10 are 5.65 nM and 9.9 min.
In the same order, the values of B12 are 0.61 nM and 30.8 min.

A further experiment concerns the target Dimeric Human Ang-2FD conjugated to human IgG1 (human). Nature of the experiment: ELISA, 16.67 nM antibody, Ang-2FD-hFc binding to coated hTie-2-mFc. A general note: ELISA stands for enzyme-linked immunosorbent assay.
Regarding B7, the Percent Blocking of Ang-2FD Binding to Tie-2 came out at 99.6%.
As for B8, the Percent Blocking of Ang-2FD Binding to Tie-2 is 99.5%.
On the same count and under the same terms, to B9 belongs 97.7%.
Molecule B10 gave a Percent Blocking of Ang-2FD Binding to Tie-2 of 98.5%.
B11 showed a Percent Blocking of Ang-2FD Binding to Tie-2 of 98.9%.
B12 gave a Percent Blocking of Ang-2FD Binding to Tie-2 of 99.6%.
Same read-out and setting: the same measure for B13: 99.4%.

For the next experiment, the target named is Dimeric Monkey Ang-2FD conjugated to human IgG1 (monkey (Macca fascicularis)). The experiment is described as above.
The molecule B7 returned a Percent Blocking of Ang-2FD Binding to Tie-2 of 95.1%.
On the same count and under the same terms, to B8 belongs 95.2%; to B9, 95.8%; to B10, 97.1%.
B11 returned a Percent Blocking of Ang-2FD Binding to Tie-2 of 97.3%.
The same measure, in the same setting: the same measure for B12: 94.1%; for B13: 97.4%.

The next experiment deals with Dimeric Mouse Ang-2FD conjugated to human IgG1 (mouse (Mus musculus)). Described as above.
B7 returned a Percent Blocking of Ang-2FD Binding to Tie-2 of 98.4%.
In turn, B8 had a Percent Blocking of Ang-2FD Binding to Tie-2 of 96.6%.
Consider B9, for which the Percent Blocking of Ang-2FD Binding to Tie-2 is 90.9%.
Molecule B10 had a Percent Blocking of Ang-2FD Binding to Tie-2 of 83.9%.
The same measure, in the same setting: the same measure for B11: 55%; for B12: 98.6%; for B13: 53.7%.
